Results reported in US12295987B2, “Method of using a GIP/GLP1 co-agonist for diabetes” (Eli Lilly and Company, priority 2018, dated 2025).
Numbered stars: 1 amine (or outer) side, 2 acyl side, 3 side chain; on linkers, the order of the positions; unused ones are H or OH. Square brackets hold non-standard residues; d marks the D form. Side chains are listed from the residue outwards. Ends that are not written are not given here. * marks the point of attachment. C20 diacid = O=C(O)CCCCCCCCCCCCCCCCCCC(=O)*; C18 diacid = O=C(O)CCCCCCCCCCCCCCCCC(=O)*; αMePhe(2-F) = C[C@](N)(Cc1ccccc1F)C(=O)O; γGlu = O=C(O)[C@H](CCC(=O)[*:2])N[*:1]; αMeL = CC(C)C[C@](C)(N)C(=O)O; AEEA = NCCOCCOCC(=O)O; Aib = CC(C)(N)C(=O)O

Target: T1, human gastric inhibitory peptide receptor (hGIPR) (Homo sapiens, UniProt P48546)
T1 construct: expressed in transfected cells; host or cells: HEK293
T1 sequence (P48546 22-466): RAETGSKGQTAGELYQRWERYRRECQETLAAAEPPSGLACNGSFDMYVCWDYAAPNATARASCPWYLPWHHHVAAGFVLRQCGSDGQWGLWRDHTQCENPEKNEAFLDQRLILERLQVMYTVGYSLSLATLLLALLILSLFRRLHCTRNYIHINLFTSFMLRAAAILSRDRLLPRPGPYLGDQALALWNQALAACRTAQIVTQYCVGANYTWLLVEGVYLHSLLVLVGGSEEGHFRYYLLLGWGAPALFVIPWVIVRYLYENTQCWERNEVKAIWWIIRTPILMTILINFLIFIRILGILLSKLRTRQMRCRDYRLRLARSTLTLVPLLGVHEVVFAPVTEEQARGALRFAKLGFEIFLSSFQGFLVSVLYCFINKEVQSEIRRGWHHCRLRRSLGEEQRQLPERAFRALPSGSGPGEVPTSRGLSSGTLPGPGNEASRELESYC
Test: cAMP pharmacological functional assay in presence of 0.1% casein, hGIPR
Type: cell-based
Details: ratio of hGIPR to hGLP1R cAMP EC50 ratios

Substance | [hGIPR/hGLP1R] EC50 Ratio
Y-Aib-EGT-αMeF(2F)-TSDHSI-αMeL-LDEK((2-[2-(2-Amino-ethoxy)-ethoxy]-acetyl)2-(γGlu)-CO—(CH2)16—CO2H)AQ-Aib-HFI-(D-Glu)-YLIEGGPSSG-NH2 (Y[Aib]EGT[αMePhe(2-F)]TSDHSI[αMeL]LDEK([AEEA-AEEA-γGlu-C18 diacid])AQ[Aib]HFI[dE]YLIEGGPSSG-NH2; N-terminus assumed; SMILES CC[C@H](C)[C@H](NC(=O)[C@H](CC(C)C)NC(=O)[C@H](Cc1ccc(O)cc1)NC(=O)[C@@H](CCC(=O)O)NC(=O)[C@@H](NC(=O)[C@H](Cc1ccccc1)NC(=O)[C@H](Cc1c[nH]cn1)NC(=O)C(C)(C)NC(=O)[C@H](CCC(N)=O)NC(=O)[C@H](C)NC(=O)[C@H](CCCCNC(=O)COCCOCCNC(=O)COCCOCCNC(=O)CC[C@H](NC(=O)CCCCCCCCCCCCCCCCC(=O)O)C(=O)O)NC(=O)[C@H](CCC(=O)O)NC(=O)[C@H](CC(=O)O)NC(=O)[C@H](CC(C)C)NC(=O)[C@](C)(CC(C)C)NC(=O)[C@@H](NC(=O)[C@H](CO)NC(=O)[C@H](Cc1c[nH]cn1)NC(=O)[C@H](CC(=O)O)NC(=O)[C@H](CO)NC(=O)[C@@H](NC(=O)[C@](C)(Cc1ccccc1F)NC(=O)[C@@H](NC(=O)CNC(=O)[C@H](CCC(=O)O)NC(=O)C(C)(C)NC(=O)[C@@H](N)Cc1ccc(O)cc1)[C@@H](C)O)[C@@H](C)O)[C@@H](C)CC)[C@@H](C)CC)C(=O)N[C@@H](CCC(=O)O)C(=O)NCC(=O)NCC(=O)N1CCC[C@H]1C(=O)N[C@@H](CO)C(=O)N[C@@H](CO)C(=O)NCC(N)=O) [Peptide 179] | 3.40
Y-Aib-EGT-αMeF(2F)-TSDHSI-αMeL-LDEK((2-[2-(2-Amino-ethoxy)-ethoxy]-acetyl)2-(γGlu)-CO—(CH2)16—CO2H)AQ-Aib-TFI-(D-Glu)-YLIEGGPSSGAPPPS-NH2 (YXEGTXTSDHSIXLDEKAQXTFIXYLIEGGPSSGAPPPS; Aib, αMeF(2F), αMeL, D-Glu; C18 diacid lipidated K; amide; (2)..(2) Xaa at position 2 is Aib; (6)..(6) Xaa at position 6 is alpha-methyl-Phe(2F); (13)..(13) Xaa at position 13 is alpha-methyl-Leu; MOD_RES (17)..(17) Lys at position 17 is chemically modified by conjugation of the epsilon-amino group of the Lys side chain with (2-[2-(2-amino-ethoxy)-ethoxy]-acetyl)2-(gamma-Glu)-CO-(CH2)16- CO2H; (20)..(20) Xaa at position 20 is Aib; (24)..(24) Xaa at positi) [Peptide 169] | 8.97
Y-Aib-EGT-αMeF(2F)-TSDHSI-αMeL-LDEK((2-[2-(2-Amino-ethoxy)-ethoxy]-acetyl)2-(γGlu)-CO—(CH2)18—CO2H)AQ-Aib-EFIEYLIEGGPSSGAPPPS-NH2 (Y[Aib]EGT[αMePhe(2-F)]TSDHSI[αMeL]LDEK([AEEA-AEEA-γGlu-C20 diacid])AQ[Aib]EFIEYLIEGGPSSGAPPPS-NH2; N-terminus assumed; SMILES CC[C@H](C)[C@H](NC(=O)[C@H](CC(C)C)NC(=O)[C@H](Cc1ccc(O)cc1)NC(=O)[C@H](CCC(=O)O)NC(=O)[C@@H](NC(=O)[C@H](Cc1ccccc1)NC(=O)[C@H](CCC(=O)O)NC(=O)C(C)(C)NC(=O)[C@H](CCC(N)=O)NC(=O)[C@H](C)NC(=O)[C@H](CCCCNC(=O)COCCOCCNC(=O)COCCOCCNC(=O)CC[C@H](NC(=O)CCCCCCCCCCCCCCCCCCC(=O)O)C(=O)O)NC(=O)[C@H](CCC(=O)O)NC(=O)[C@H](CC(=O)O)NC(=O)[C@H](CC(C)C)NC(=O)[C@](C)(CC(C)C)NC(=O)[C@@H](NC(=O)[C@H](CO)NC(=O)[C@H](Cc1c[nH]cn1)NC(=O)[C@H](CC(=O)O)NC(=O)[C@H](CO)NC(=O)[C@@H](NC(=O)[C@](C)(Cc1ccccc1F)NC(=O)[C@@H](NC(=O)CNC(=O)[C@H](CCC(=O)O)NC(=O)C(C)(C)NC(=O)[C@@H](N)Cc1ccc(O)cc1)[C@@H](C)O)[C@@H](C)O)[C@@H](C)CC)[C@@H](C)CC)C(=O)N[C@@H](CCC(=O)O)C(=O)NCC(=O)NCC(=O)N1CCC[C@H]1C(=O)N[C@@H](CO)C(=O)N[C@@H](CO)C(=O)NCC(=O)N[C@@H](C)C(=O)N1CCC[C@H]1C(=O)N1CCC[C@H]1C(=O)N1CCC[C@H]1C(=O)N[C@@H](CO)C(N)=O) [Peptide 154] | 4.80
Y-Aib-EGT-αMeF(2F)-TSDHSI-αMeL-LDEK((2-[2-(2-Amino-ethoxy)-ethoxy]-acetyl)2-(γGlu)-CO—(CH2)18—CO2H)AQ-Aib-TFI-(D-Glu)-YLIEGGPSSG-NH2 (Y[Aib]EGT[αMePhe(2-F)]TSDHSI[αMeL]LDEK([AEEA-AEEA-γGlu-C20 diacid])AQ[Aib]TFI[dE]YLIEGGPSSG-NH2; N-terminus assumed; SMILES CC[C@H](C)[C@H](NC(=O)[C@H](CC(C)C)NC(=O)[C@H](Cc1ccc(O)cc1)NC(=O)[C@@H](CCC(=O)O)NC(=O)[C@@H](NC(=O)[C@H](Cc1ccccc1)NC(=O)[C@@H](NC(=O)C(C)(C)NC(=O)[C@H](CCC(N)=O)NC(=O)[C@H](C)NC(=O)[C@H](CCCCNC(=O)COCCOCCNC(=O)COCCOCCNC(=O)CC[C@H](NC(=O)CCCCCCCCCCCCCCCCCCC(=O)O)C(=O)O)NC(=O)[C@H](CCC(=O)O)NC(=O)[C@H](CC(=O)O)NC(=O)[C@H](CC(C)C)NC(=O)[C@](C)(CC(C)C)NC(=O)[C@@H](NC(=O)[C@H](CO)NC(=O)[C@H](Cc1c[nH]cn1)NC(=O)[C@H](CC(=O)O)NC(=O)[C@H](CO)NC(=O)[C@@H](NC(=O)[C@](C)(Cc1ccccc1F)NC(=O)[C@@H](NC(=O)CNC(=O)[C@H](CCC(=O)O)NC(=O)C(C)(C)NC(=O)[C@@H](N)Cc1ccc(O)cc1)[C@@H](C)O)[C@@H](C)O)[C@@H](C)CC)[C@@H](C)O)[C@@H](C)CC)C(=O)N[C@@H](CCC(=O)O)C(=O)NCC(=O)NCC(=O)N1CCC[C@H]1C(=O)N[C@@H](CO)C(=O)N[C@@H](CO)C(=O)NCC(N)=O) [Peptide 167] | 5.98
Y-Aib-EGT-αMeF(2F)-TSDHSI-αMeL-LDEK((2-[2-(2-Amino-ethoxy)-ethoxy]-acetyl)2-(γGlu)-CO—(CH2)18—CO2H)AQ-Aib-TFI-(D-Glu)-YLIEGGPSSGAPPPS-NH2 (YXEGTXTSDHSIXLDEKAQXTFIXYLIEGGPSSGAPPPS; Aib, αMeF(2F), αMeL, D-Glu; lipidated K; C-terminal amide; (2)..(2) Xaa at position 2 is Aib; (6)..(6) Xaa at position 6 is alpha-methyl-Phe(2F); (13)..(13) Xaa at position 13 is alpha-methyl-Leu; MOD_RES (17)..(17) Lys at position 17 is chemically modified by conjugation of the epsilon-amino group of the Lys side chain with (2-[2-(2-amino-ethoxy)-ethoxy]-acetyl)2-(gamma-Glu)-CO-(CH2)18- CO2H; (20)..(20) Xaa at position 20 is Aib; (24)..(24) Xaa at positi) [Peptide 168] | 9.69
Y-Aib-EGT-αMeF(2F)-TSDHSI-αMeL-LDEK((2-[2-(2-Amino-ethoxy)-ethoxy]-acetyl)2-(εK)-CO—(CH2)16—CO2H)AQ-Aib-TFI-(D-Glu)-YLIEGGPSSGAPPPS-NH2 (YXEGTXTSDHSIXLDEKAQXTFIXYLIEGGPSSGAPPPS; Aib, αMeF(2F), αMeL, D-Glu; εK-lipidated K; amide; (2)..(2) Xaa at position 2 is Aib; (6)..(6) Xaa at position 6 is alpha-methyl-Phe(2F); (13)..(13) Xaa at position 13 is alpha-methyl-Leu; MOD_RES (17)..(17) Lys at position 17 is chemically modified by conjugation of the epsilon-amino group of the Lys side chain with (2-[2-(2-amino-ethoxy)-ethoxy]-acetyl)2-(epsilon-Lys)-CO-(CH2)16- CO2H; (20)..(20) Xaa at position 20 is Aib; (24)..(24) Xaa at posi) [Peptide 176] | 4.71
Y-Aib-EGT-αMeF(2F)-TSDHSI-αMeL-LDEK((2-[2-(2-Amino-ethoxy)-ethoxy]-acetyl)2-CO—(CH2)18—CO2H)AQ-Aib-TFI-(D-Glu)-YLIEGGPSSGAPPPS-NH2 (YXEGTXTSDHSIXLDEKAQXTFIXYLIEGGPSSGAPPPS; Aib, αMeF(2F), αMeL, D-Glu; lipidated K; amide; (2)..(2) Xaa at position 2 is Aib; (6)..(6) Xaa at position 6 is alpha-methyl-Phe(2F); (13)..(13) Xaa at position 13 is alpha-methyl-Leu; MOD_RES (17)..(17) Lys at position 17 is chemically modified by conjugation of the epsilon-amino group of the Lys side chain with (2-[2-(2-amino-ethoxy)-ethoxy]-acetyl)2-CO-(CH2)18-CO2H; (20)..(20) Xaa at position 20 is Aib; (24)..(24) Xaa at position 24 is D-Gl) [Peptide 174] | 4.99
